This note sets out measurements from patent US20260258115A1 (MAPP BIOPHARMACEUTICAL, published 2026).

Usually Kd stands for the constant that tells how readily two partners part at equilibrium.

Substitutions are numbered along the chain they refer to. Bounds are passed on as bounds.

B1: ADI-14370 (antibody, V domains shown)
VH: EVQLVESGGGVVQPGKSLRLSCAASGFSFSTFAMHWVRQAPGKGLEWVAVISYDGSNKFYADSVKGRFTISRDSSKNTLYLQMNSLRAEDTAVYYCARGGYSSGWYVTHFDYWGQGTLVTVSS
VL: QSVLTQPPSASGSPGQSVTISCTGTSSDVGGYNYVSWYQQHPGKAPKLMIYEVSKRPSGVPDRFSGSKSGNTASLTVSGLQAEDEADYYCSSYAGSNNLYVFGTGTKLTVL
notes: full-length IgG; also called Ab 38
B2: ADI-14378 (antibody, V domains shown)
VH: QVQLVESGGGLVQPGGSLRLSCAASGFTFSSYWMHWVRQAPGKGLVWVSRINSDGSSPTYADSVKGRFTISRDNAKNTVFLQMNSLRAEDTAVYYCARESWELIRGDAFDIWGQGTTVTVSS
VL: DIQMTQSPSSLSASVGDRVTITCRASQSISSSLNWYQQKPGKAPNLLIYAASTLQSGVPSRFSGSGSGTDFTLTISSLQPEDFATYYCQQSYRTPRTFGQGTKVEIK
notes: full-length IgG; also called Ab 46
B3: ADI-14388 (antibody, V domains shown)
VH: EVQLVESGGGVVQPGRSLRLSCAASGFTFSSYPMHWVRQAPGKGLEWVAVISYDGSNKYYADSVKGRFTISRDNSKNTLYLQMNSLRAEDTAVYSCARAQSAAIFDHWGQGTLVTVSS
VL: QAVVTQEPSLTVSPGGTVTLTCASSTGAVTSGYYPNWFQQKPGQAPRALIYTTSKRHSWTPARFSGSLLGGKAALTLSGVQPEDEADYYCLLYYGGANWVFGGGTKLTVL
notes: full-length IgG; also called Ab 55
B4: ADI-14374 (antibody, V domains shown)
VH: QVQLVQSGGVVVQPGGSLRLSCAASGFNFDDFTMHWVRQAPGKGLEWVSLITWDGGITYYADSVKGRFTISRDNGKNSLYLRMNSLRTEDTALYYCAKDGDRYSGYAFLDYWGQGTLVTVSS
VL: SYELTQPPSVSVAPGKTARLTCGGNNIGSESVHWYQQRPGQAPVLVSYYNGDRPSGIAERISASKSGNTATLTIYRVEAGDEADYYCQVWHSSSDHFVFGTGTQLTVL
notes: full-length IgG; also called Ab 42
B5: ADI-14349 (antibody, V domains shown)
VH: EVQLVESGAEVKKPGSSVKVSCKASGGTLSSYAFSWVRQAPGQGLEWMGGVIPISATSDYAQKFQGRVTITADESTSTVYMELRSLRSEDTAVYYCARDTRYSSGWFYDYWGQGTLVTVSS
VL: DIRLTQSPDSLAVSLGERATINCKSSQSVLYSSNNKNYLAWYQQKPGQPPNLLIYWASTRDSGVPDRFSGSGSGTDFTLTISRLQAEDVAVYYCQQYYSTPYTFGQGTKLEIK
notes: full-length IgG; also called Ab 17
B6: ADI-14377 (antibody, V domains shown)
VH: EVQLVESGGGVVQPGGSLRLSCAVSGITFSSYGMHWVRQAPGKGLEWVAFIRYDGSNKYYGDSLRGRFTISRDNSKNTLYLQMNSLRAEDTAVYYCAKDAVGIGGYYGLDVWGQGTTVTVSS
VL: DIQMTQSPSSLSASVGDRVTITCRASQGIRNDLGWYQQKPGKAPKRLIYAASSLQSGVPSRFSGSGSGTEFTLTISSLQPEDFATYYCLQHNGYPWTFGQGTKVEIK
notes: full-length IgG; also called Ab 45
B7: ADI-14391 (antibody, V domains shown)
VH: QVQLVESGGGLVQPGGSLRLSCAAAGFSFSNYAMSWVRQAPGKGLEWVAVISGNAGSTYYAESVKGRFTISRDNSKNTLHLQMNSLRGEDTAVYYCAKPPGIAVAGEYYWYFDLWGRGTLVTVSS
VL: QVQLMQPPSVSVSPGQTARITCSGDALPRENAYWYQQKSGQAPVLVIYEDSKRPSGIPERFSGSSSGTMATLTITGAQVEDEADYYCYSTDTSAYHWVFGGGTKLTVL
notes: full-length IgG; also called Ab 58
B8: ADI-19488 (antibody, V domains shown)
VH: QVQLVQSGAEVKKPGASVKVSCKVSGYTLTELSMHWVRQAPGKGLEWMGGFDPEDGETIYAQKFQGRVTMTEDTSTDTAYMELSSLRSEDTAVYYCATARFLEWLSGTNWFDPWGQGTLVTVSS
VL: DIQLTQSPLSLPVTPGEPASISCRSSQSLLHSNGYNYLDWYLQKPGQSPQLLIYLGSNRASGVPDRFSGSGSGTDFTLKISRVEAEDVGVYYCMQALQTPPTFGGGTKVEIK
notes: full-length IgG; also called Ab 190
B9: ADI-19432 (antibody, V domains shown)
VH: QVQLVQSGAEVKKPGASVKVSCKVSGYTLTELSMHWVRQAPGKGLEWMGGFDPEDGETIYAQKFQGRVTMTEDTSTDTAYMELSSLRSEDTAVYYCATEREEGGYSGYDDAFDIWGQGTMVTVSS
VL: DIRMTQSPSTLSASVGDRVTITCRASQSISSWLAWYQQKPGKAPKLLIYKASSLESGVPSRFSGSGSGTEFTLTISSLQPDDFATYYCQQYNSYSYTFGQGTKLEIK
notes: full-length IgG
B10: ADI-19433 (antibody, V domains shown)
VH: EVQLVESGGGLVKPGGSLRLSCAASGFTFSSYSMNWVRQAPGKGLEWVSSISSSSSYIYYADSVKGRFTISRDNAKNSLYLQMNSLRAEDTAVYYCARAPPSVGGWYFDLWGRGTLVTVSS
VL: QPVLTQPPSVSGAPGQRVTISCTGSSSNIGAGYDVHWYQQLPGTAPKLLIYGNSNRPSGVPDRFSGSKSGTSASLAITGLQAEDEADYYCQSYDSSLVFGGGTKLTVL
notes: full-length IgG
B11: ADI-19487 (antibody, V domains shown)
VH: QVTLKESGPALVKPTQTLTLTCTFSGLSISTSGMCVSWIRQPPGKALEWLARIDWDDDKYYSTSLKTRLTISKDTSKNQVVLTMTNMDPVDTATYYCARINYYDSSGYYVYYFDYWGQGTLVTVSS
VL: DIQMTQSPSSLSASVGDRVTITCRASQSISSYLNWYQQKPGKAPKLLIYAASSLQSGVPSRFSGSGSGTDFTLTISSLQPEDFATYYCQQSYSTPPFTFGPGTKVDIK
B12: ADI-43643 (antibody, V domains shown)
VH: QVQLVQSGGGLVKPGGSLRLSCAASGFTFSSYSMNWVRQAPGKGLEWVSSISSSSSYIYYADSVKGRFTISRDNAKNSLYLQMNSLRAEDTAVYYCARVLSGYSYGYDYWGQGTLVTVSS
VL: QSVLTQPPSVSGAPGQRVTISCTGSSSNIGAGYDVHWYQQLPGTAPKLLIYGNSNRPSGVPDRFSGSKSGTSASLAITGLQAEDEADYYCQSYDSSLSGSVFGTGTKVTVL
B13: ADI-41519 (antibody, V domains shown)
VH: QVQLVESGPGLVKPSETLSLTCNVSGGSIITSGSYWGWIRQPPGKGLTWIGSISYSGTTYYNPSLRSRLTISLDTSRNHFSLQLTSVSAADTAVYYCARAFYEVWTGSEIPGDFDRWGQGTLVTVSS
VL: EIVLTQSPGTLSLSPGERATLSCRASQSVSSSYLAWYQQKPGQAPRLLIYGASSRAIDIPDRFSGSGSGTDFTLTISRLEPEDFAVYYCQQFRRSPWTFGQGTKVDIK
B14: ADI-41522 (antibody, V domains shown)
VH: QVQLVQSGAEVKKPGSSVKVSCKASGGTFNNFPISWVRQAPGQGLEWMGGIIPMFGRANYAQKFQGRVTITADESTTTVYMALRSLRSEDTAVYYCARPDYDVLTGFEGAFDIWGQGTMVTVSS
VL: QSALTQPASVSGSPGQLITISCTGTSRDVGGYNYVSWYQQHPGKAPKLMIYDVTNRPSGVSNRFSGSKSGNTASLTISGLQSEDEADYYCSSYTSTTTWVFGGGTKLTVL
B15: ADI-41515 (antibody, V domains shown)
VH: QVQLVESGGGLVQPGGSLRLSCAASGFTFSDYAMSWVRQAPGKGLVWVSSISGSGKFTYYEDSLRGRVTISRDNSKNTVYLHMNSLRTEDTALYYCARLRIPVINEVDGAMDVWGQGTTVTVSS
VL: SYELTQLPSVSVSPGQTARITCSGDALPKKFAYWYQQKSGQAPVLVIYEDTGRPSGIPERFSGSTSGTTATLTINGAQVEDEGDYYCYSADSSDNQGVFGGGTKVTVL
B16: ADI-41505 (antibody, V domains shown)
VH: QVQLQQSGAGLLKPSETLSLTYVVYGGSFSGYYWSWIRQPPGKGLEWVGDINHSTTTNYNPSLESRITISIDTSKNQFSLNLSSVTAADSAVYYCARGPKECTSSSCDRFGVDYFYYGMDVWGRGTTVTVSS
VL: QSVLTQPPSVSGAPGQRVTISCTGSSANIGAGYDVHWYQQFPGTAPKLLIFGNSNRPSGVPDRFSGSKSGTSASLAITGLQAGDEADYYCQSYDGTLGGWVFGGGTQLTVL
B17: ADI-41518 (antibody, V domains shown)
VH: EVQLVESGGGLVKPGGSLRLSCAASGFTFSSYSMNWVRQAPGKGLEWVSSISSSSSYINYADSVKGRFTISRDNAKNSLYLQMNSLRAEDTALYYCARDLGYCSDTSCTPGIGYWGQGTLVTVSS
VL: B12 VL with S2P, S96G, G99P, S100W, T104G, V108L
B18: ADI-41542 (antibody, V domains shown)
VH: EVQLVESGVAVKKPGESLKISCKGSGYNFDSFWIGWVRQLPGKGLEWMGIIFPGDSDTRYGPSFQGQVTISADKSINTAYLQWRSLKASDTAMYYCARHGLGGYDNSGYNLWGHGTMVTVSS
VL: DIVMTQSPSSLSASVGDRVTITCQASHDISTSLNWYQQKPGKAPNLLISDASTLERGVPSRFSGGGSGTEFTFTISSLQPEDIATYYCQQFENLPITFGQGTRLEIK
B19: ADI-41520 (antibody, V domains shown)
VH: EVQLLESGGGVVRPGGSLRLSCAASGFSFDDYGMTWVRQAPGKGLEWVSGINWNGISTDYADSVKGRFTISRDNAKNSVYLQMNSLRAEDTALYYCARIGGVVVIASTAYYYGMDVWGQGTTVTVSS
VL: DIQLTQSPSSLSAYVGDRVTITCRASQSIRNHLNWYQQKPGKAPQLLIYTASSLQDGVPSRFSGSGSGTDFTLAISSLQPEDFATYYCQQSHSMPPTFGQGTRLEIK

The target of one assay is T1, RSV prefusion F (preF), subtype B (respiratory syncytial virus subtype B).
T1 construct: also called Prefusion subtype B
Nature of the assay: BLI, IgG. For orientation: Biolayer interferometry detects binding as a change in optical thickness at a sensor tip.
In turn, B1 had a Kd of 4.18 nM.

With B2, the dissociation constant (Kd) was 6.1 nM. The Kd values of the last two molecules are within 1.5-fold of each other.

B3 returned a dissociation constant (Kd) of 5.5 nM.

On to B4, for which the dissociation constant Kd is 2.09 nM.

Molecule B5 yielded a Kd of 4.07 nM.

The molecule B6 registered an equilibrium dissociation constant (Kd) of 5.28 nM.

Regarding B7, the dissociation constant (Kd) was determined as 5.36 nM.

As to B8, the Kd was 10.7 nM.

The target of another assay is RSV F on RSV subtype A virus (mKate-RSV A2) (respiratory syncytial virus A2, UniProt P03420 26-574). Put plainly: cell-based or functional assay.
Take B9: the “Neut IC50 subtype A” value was 11 µg/mL.

With B10, the “Neut IC50 subtype A” value turned out to be 1.56 µg/mL.

For another assay, the target named is RSV F on RSV subtype B virus (mKate-RSV B 18537) (respiratory syncytial virus B 18537, UniProt P13843 26-574). Put plainly: cell-based or functional assay.
In the case of B1, the “Neut IC50 subtype B” value came to 1.38 µg/mL.

On to B2, for which the “Neut IC50 subtype B” value stood at 21.6 µg/mL.

Turning to B11, the “Neut IC50 subtype B” value came to 7.96 µg/mL.

For the molecule B3, the “Neut IC50 subtype B” value was found to be 3.07 µg/mL.

As for B4, the “Neut IC50 subtype B” value was 0.86 µg/mL.

Turning to B5, the “Neut IC50 subtype B” value turned out to be 1.84 µg/mL.

As for B6, the “Neut IC50 subtype B” value was 2.13 µg/mL.

Consider B7, for which the “Neut IC50 subtype B” value was determined as 22.2 µg/mL.

Consider B8, for which the “Neut IC50 subtype B” value is 3.38 µg/mL.

A further assay concerns the target T2, RSV postfusion F (postF), subtype A (respiratory syncytial virus subtype A, UniProt P03420 26-513).
T2 construct: also called Postfusion subtype A; F deltaFP
Put plainly: BLI.
For the molecule B3, the binding result is reported as “no binding”.

Regarding B9, the binding result is listed as “no binding”.

For the molecule B10, the binding result was “no binding”.

Consider B5, for which the binding result is recorded as “no binding”.

On to B6, for which the binding result is recorded as “no binding”.

Regarding B7, the binding result is listed as “no binding”.

Consider B8, for which the binding result was “no binding”.

The target of a further assay is RSV F on RSV-A2 virus (Respiratory Syncytial Virus (RSV-A2), UniProt P03420 26-574). Put plainly: cell-based or functional assay.
Turning to B12, the “Neutralization IC50 (RSV subtype A)” value is more than 25 µg/mL.

B13: the “Neutralization IC50 (RSV subtype A)” value is more than 25 µg/mL.

Take B14: the “Neutralization IC50 (RSV subtype A)” value is more than 25 µg/mL.

Turning to B15, the “Neutralization IC50 (RSV subtype A)” value was more than 25 µg/mL.

For the molecule B16, the “Neutralization IC50 (RSV subtype A)” value is more than 25 µg/mL.

Regarding B17, the “Neutralization IC50 (RSV subtype A)” value was more than 25 µg/mL.

As to B18, the “Neutralization IC50 (RSV subtype A)” value came to 0.69 µg/mL.

Turning to B19, the “Neutralization IC50 (RSV subtype A)” value is more than 25 µg/mL.
